Reference: patent US20240199731A1 (published 2024)

Target: T1, Recombinant human IL-17A (Peprotech, cat #AF-200-17) (human, UniProt Q16552 24-155)
T1 construct: Bought protein
Assay: SPR (BIAcore T200), IL-17A coupled to CM5 chip, VH as analyte, single-cycle kinetics
Experimental: VH binding kinetics were then determined from the (blank subtracted) sensorgram traces using 1:1 binding models and BIAevaluation software.

T1 sequence (Q16552 24-155): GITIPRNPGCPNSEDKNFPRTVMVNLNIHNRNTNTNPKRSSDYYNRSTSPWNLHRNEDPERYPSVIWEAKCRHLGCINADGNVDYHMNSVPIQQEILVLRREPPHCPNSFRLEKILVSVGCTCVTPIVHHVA

B1: Clone 1.17 (VHH)
VHH: EVQLVESGGGLVQPGGSLRLSCAASGFTFSSYSMYWVRQAPGKGLEWVAEIKPTGSVQYYVSDVKGRFTISRDNAKNSLYLQMNSLRAEDTAVYYCAKGEILPLYFDYWGQGTLVTVSS
notes: Human single VH domain; also called VH 1.17.1
How did the Kd turn out when B1 was run?
Its Kd is 1.5 nM.
